Source: the Human Domainome abundance scans (Beltran et al. 2025)

B1: Far upstream element-binding protein 1, residues 184 to 257; numbered along this chain, Q96AE4 (parent)
chain: GNAVQEIMIPASKAGLVIGKGGETIKQLQERAGVKMVMIQDGPQNTGADKPLRITGDPYKVQQAKEMVLELIRD

Variants of: B1
Experiment: abundance fitness (aPCA) (normalised: wild type 0, dead -1); higher = more abundant; growth selection in yeast, the domain comes from the species named
Settings: Homo sapiens

Abundance fitness of substitutions, site by site:
K60: W -0.314, I -0.653, M -0.118, T -0.278, H -0.01, Q -0.037, G -0.086, P -0.179, R -0.052, A -0.036, E -0.187, C 0.002, Y -0.233, D -0.164, V -0.581, F -0.277, N 0.029, L -0.065
T55: V -0.047, F -0.062, P -0.963, H -0.096, Y -0.132, R -0.152, W -0.115, M -0.008, E -0.086, N -0.138, Q -0.022, D -0.111, L -0.05, K -0.165, C -0.065, S -0.053, I -0.023
L52: T -0.878, H -0.853, E -0.956, W -0.738, I -0.055, G -0.886, Q -0.97, K -0.841, D -0.702, N -0.746, S -0.918, C -0.229, V -0.145, M -0.047, A -0.807
Y59: V -0.024, C -0.003, I 0.046, G 0.029, S 0.006, A 0.011, H 0.044, N 0.047, R 0.032, E 0.009, T 0.047, W 0.021, F -0.003, L 0.026, M -0.043, K 0.036, P 0.015, D 0.057
G56: S -1.02, C -1.08, R -1.04, W -1.22, I -1.14, N -0.668, T -1.12, H -1.09, F -0.971, A -1.01, E -1.05, P -1.18, K -0.942, D -0.803, V -1.26, Y -1.25, L -1.28, Q -0.962
R53: N -0.257, F -0.116, E -0.116, Q -0.009, M -0.031, S -0.148, A -0.14, L -0.075, K -0.025, H -0.046, T 0.008, I -0.049, C -0.111, W -0.205, G -0.52, P -0.941, D -0.616
I54: F -0.175, H -1.03, G -0.913, V -0.148, P -1.08, W -1.06, N -1.22, K -0.878, Q -0.902, A -0.807, R -1.06, D -0.829, S -0.522, C -0.504, E -0.883, M -0.074, L -0.069, T -0.723, Y -1.19
P58: L -0.068, E -0.004, G -0.034, S -0.064, N -0.139, R 0, M -0.014, Q -0.079, H -0.003, V -0.031, W -0.044, K -0.016, C -0.1, A -0.012, Y -0.022, T -0.002
P51: T -0.018, W -0.066, R 0.007, Y -0.059
D57: C -0.093, V -0.085, A -0.017, N -0.083, H -0.022, F -0.285, E 0.019, W -0.387, G -0.218, T -0.028, Y -0.208, L -0.119, Q -0.018, P -0.018, M -0.138
V61: E -0.787, I -0.091, F -0.599, G -0.627, H -0.814, D -0.881, C -0.062, L -0.286, A -0.22, K -0.847
